Assay results published in paper PMC2774266, “Misguided Transcriptional Elongation Causes Mixed Lineage Leukemia” (PLoS Biology, 2009).

Biological target: endogenous CDK9 (cyclin dependent kinase 9, kinase of pTEFb) (human (endogenous in HEK293T, SEM and …, UniProt P50750 1-372))
Experiment: cell-based or functional assay

endogenous CDK9 (cyclin dependent kinase 9, kinase of pTEFb) (human, sequence (P50750 whole entry): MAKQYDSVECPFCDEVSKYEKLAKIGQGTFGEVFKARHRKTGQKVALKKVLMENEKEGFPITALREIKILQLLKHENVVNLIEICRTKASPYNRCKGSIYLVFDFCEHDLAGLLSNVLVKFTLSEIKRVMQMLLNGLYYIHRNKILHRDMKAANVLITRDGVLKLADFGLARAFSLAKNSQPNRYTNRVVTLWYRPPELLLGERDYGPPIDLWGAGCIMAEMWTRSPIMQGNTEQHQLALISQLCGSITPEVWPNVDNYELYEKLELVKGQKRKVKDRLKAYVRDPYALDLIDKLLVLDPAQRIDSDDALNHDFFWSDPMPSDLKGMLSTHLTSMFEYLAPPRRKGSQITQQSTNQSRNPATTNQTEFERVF

B1: ENL (eleven nineteen leukemia protein), full-length two-hybrid fusion (natural protein, human, UniProt Q03111 1-559, looked up)
chain: MDNQCTVQVRLELGHRAQLRKKPTTEGFTHDWMVFVRGPEQCDIQHFVEKVVFWLHDSFPKPRRVCKEPPYKVEESGYAGFIMPIEVHFKNKEEPRKVCFTYDLFLNLEGNPPVNHLRCEKLTFNNPTTEFRYKLLRAGGVMVMPEGADTVSRPSPDYPMLPTIPLSAFSDPKKTKPSHGSKDANKESSKTSKPHKVTKEHRERPRKDSESKSSSKELEREQAKSSKDTSRKLGEGRLPKEEKAPPPKAAFKEPKMALKETKLESTSPKGGPPPPPPPPPRASSKRPATADSPKPSAKKQKKSSSKGSRSAPGTSPRTSSSSSFSDKKPAKDKSSTRGEKVKAESEPREAKKALEVEESNSEDEASFKSESAQSSPSNSSSSSDSSSDSDFEPSQNHSQGPLRSMVEDLQSEESDEDDSSSGEEAAGKTNPGRDSRLSFSDSESDNSADSSLPSREPPPPQKPPPPNSKVSGRRSPESCSKPEKILKKGTYDKAYTDELVELHRRLMALRERNVLQQIVNLIEETGHFNVTNTTFDFDLFSLDETTVRKLQSCLEAVAT
luciferase in the RNA tethering assay (TAR/IIb reporter) of Rev-ENL in 293T cells, relative to Rev alone; contact with pTEFb indirect: ~6 fold
